US20260274955A1 (JANUX THERAPEUTICS, published 2026)

Columns and labels:
[1] = molecular target: T1, Anti-CD28 Fab (SEQ ID NOs: 202, 203); assay: phage ELISA on captured biotinylated Fab;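 further: wells preblocked with or without CD28 antigen, then clonal phage supernatant added briefly, washed, and bound phage read out by ELISA using HRP-linked anti-M13 antibody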
T1 construct: biotinylated and captured on neutravidin coated plates in the phage ELISA
Procedure: (§1) Clonal phage were harvested as crude supernatants and screened via standard ELISAs. […] Prior to the addition of clonal phage, wells were incubated with blocking buffer and CD28 antigen or blocking buffer alone. Without washing or aspirating, clonal phage supernatants were then added to the wells and incubated for a short time. Wells were then washed followed by detection of bound phage using a horse radish conjugated anti-M13 antibody.

[2] = molecular target: T2, anti-CD28 Fab (SEQ ID NOs: 202, 203); assay: phage binding ELISA; biotinylated Fab on neutravidin plate;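 further: clonal phage supernatants added to Fab wells pretreated with CD28 antigen or with blocking buffer only, bound phage read out via HRP-linked anti-M13 antibody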
T2 construct: biotinylated and captured on neutravidin coated plates in the phage ELISA
T2 sequence (VH, as listed by the source, chain 1 of 2): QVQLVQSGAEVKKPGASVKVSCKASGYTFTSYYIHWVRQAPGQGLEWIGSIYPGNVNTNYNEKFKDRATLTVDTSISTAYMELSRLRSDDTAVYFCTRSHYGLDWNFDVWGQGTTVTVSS
T2 sequence (VL, as listed by the source, chain 2 of 2): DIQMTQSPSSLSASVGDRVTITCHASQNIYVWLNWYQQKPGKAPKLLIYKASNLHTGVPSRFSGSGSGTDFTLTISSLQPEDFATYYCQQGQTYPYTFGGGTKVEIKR
Procedure: as §1

T1 sequence (VH, as listed by the source, chain 1 of 2): as the sequence (VH, as listed by the source, chain 1 of 2) above
T1 sequence (VL, as listed by the source, chain 2 of 2): as the sequence (VL, as listed by the source, chain 2 of 2) above

Row | Binder | Anti-CD28 Fab signal [1] | Anti-CD28 Fab (SEQ ID NOs: 202, 203) signal [2]
1 | YCEGHAREHMAKCL [Phage-250] | 2.02 | 
2 | YCDGHVEEYLYKCL [Phage-310] |  | 1.9
3 | YCAGHLEIYMNKCL [Phage-283] | 1.94 | 
4 | YCDGHMPEYMWKCL [Phage-170] | 2.17 | 
5 | YCDGHAPEYMEKCL [Phage-254] | 2.01 | 
6 | YCDGHSHEYMEKCL [Phage-257] | 2.01 | 
7 | YCDGHLPMYFAKCM [Phage-351] |  | 1.83
8 | YCEGHLPIYLSKCL [Phage-285] | 1.94 | 
9 | YCDGHSSEYIVKCL [Phage-352] |  | 1.83
10 | YCEGHSAEYMLKCL [Phage-401] |  | 1.75
11 | YCSGHSAEYMLKCL [Phage-411] |  | 1.73
12 | YCDGHLKEYQEKCL [Phage-299] | 1.91 | 
13 | YCDGHAEEYMSKCL [Phage-309] |  | 1.9
14 | YCEGHSAEYIFKCL [Phage-354] |  | 1.83
15 | YCEGHLPVYMWKCL [Phage-169] | 2.17 | 
16 | YCEGHLSQYMEKCL [Phage-281] | 1.95 | 
17 | YCEGHLSEYMAKCL [Phage-284] | 1.94 | 
18 | YCAGHSPEYMTKCL [Phage-171] | 2.17 | 
19 | YCEGHSPEYMTKCL [Phage-251] | 2.02 | 
20 | YCEGHAAEYMWKCL [Phage-353] |  | 1.83
21 | YCEGHAQEYMSKCL [Phage-439] |  | 1.7
22 | YCDGHAPEYMKKCL [Phage-306] |  | 1.9
23 | YCDGHTQEYMAKCL [Phage-168] | 2.17 | 

Row | Binder | Anti-CD28 Fab signal [1] | Anti-CD28 Fab (SEQ ID NOs: 202, 203) signal [2]
24 | YCDGHMGVYYWKCL [Phage-255] | 2.01 | 
25 | YCDGHSPEYMNKCL [Phage-399] |  | 1.75
26 | YCAGHSVEYMAKCL [Phage-275] | 1.96 | 
27 | YCEGHRPEYMQKCL [Phage-249] | 2.03 | 
28 | YCDGHLIEYMYKCL [Phage-278] | 1.95 | 
29 | YCAGHLEEYMDKCL [Phage-311] |  | 1.9
30 | YCDGHLSEYMAKCL [Phage-424] |  | 1.72
31 | YCDGHASEYMAKCL [Phage-407] |  | 1.75
32 | YCDGHLVEYMSKCL [Phage-280] | 1.95 | 
33 | YCDGHIPEYLAKCL [Phage-391] |  | 1.76
34 | YCQGHLPEYMSKCL [Phage-258] | 2.01 | 
35 | YCDGHSNEYMAKCL [Phage-175] | 2.16 | 
36 | YCDGHSLEYMAKCL [Phage-180] | 2.15 | 
37 | YCEGHLPQYLQKCL [Phage-176] | 2.16 | 
38 | YCDGHEAQYMSKCL [Phage-256] | 2.01 | 
39 | YCEGHAPQYIAKCL [Phage-246] | 2.03 | 
40 | YCDGHLPEYLGKCL [Phage-274] | 1.96 | 
41 | YCAGHAPEYMQKCL [Phage-174] | 2.16 | 
42 | YCAGHAPEYIQKCL [Phage-172] | 2.17 | 
43 | YCAGHLPEYMMKCL [Phage-248] | 2.03 | 
44 | YCAGHLPEYLDKCL [Phage-430] |  | 1.71
45 | YCDGHSKEYMHKCL [Phage-307] |  | 1.9
46 | YCAGHSSEYIWKCL [Phage-362] |  | 1.82

Row | Binder | Anti-CD28 Fab signal [1] | Anti-CD28 Fab (SEQ ID NOs: 202, 203) signal [2]
47 | YCAGHSMEYMAKCL [Phage-435] |  | 1.71
48 | YCAGHSAEYMAKCL [Phage-419] |  | 1.73
49 | YCAGHSAEYMWKCL [Phage-433] |  | 1.71
50 | YCDGHSPMYIGKCL [Phage-247] | 2.03 | 
51 | YCEGHLPEYMQKCL [Phage-404] |  | 1.75
52 | YCSGHLPEYMGKCL [Phage-417] |  | 1.73
53 | YCSGHLPEYMQKCL [Phage-403] |  | 1.75
54 | YCEGHLPDYMQKCL [Phage-412] |  | 1.73
55 | YCDGHEPQYLEKCL [Phage-308] |  | 1.9
56 | YCEGHSPMYMQKCM [Phage-355] |  | 1.83
57 | YCDGHVAEYRDKCL [Phage-173] | 2.17 | 
58 | YCDGHLPEYMWKCI [Phage-178] | 2.15 | 
59 | YCDGHSQEYMWKCL [Phage-305] |  | 1.9
60 | YCDGHSQEYMLKCL [Phage-392] |  | 1.76
61 | YCDGHSPEHIRKCL [Phage-282] | 1.94 | 
62 | YCEGHSLEYMGKCL [Phage-253] | 2.02 | 
63 | YCDGHVAEYMAKCL [Phage-177] | 2.16 | 
64 | YCDGHSAEYMWKCL [Phage-179] | 2.15 | 
65 | YCDGHSALYMWKCL [Phage-276] | 1.96 | 
66 | YCDGHSAEYMQKCL [Phage-279] | 1.95 | 
67 | YCDGHSSEYMIKCL [Phage-277] | 1.95 | 
68 | YCDGHLEQYRAKCL [Phage-273] | 1.96 | 
69 | YCEGHSIQYMAKCL [Phage-252] | 2.02 | 
